Reference: patent US20100061983A1 (published 2010)

T1: human CXC Chemokine Receptor 3 (CXCR3) (human, UniProt P49682 1-368)
T1 construct: also called IP-10/Mig receptor; IP-10/MigR
T1 sequence: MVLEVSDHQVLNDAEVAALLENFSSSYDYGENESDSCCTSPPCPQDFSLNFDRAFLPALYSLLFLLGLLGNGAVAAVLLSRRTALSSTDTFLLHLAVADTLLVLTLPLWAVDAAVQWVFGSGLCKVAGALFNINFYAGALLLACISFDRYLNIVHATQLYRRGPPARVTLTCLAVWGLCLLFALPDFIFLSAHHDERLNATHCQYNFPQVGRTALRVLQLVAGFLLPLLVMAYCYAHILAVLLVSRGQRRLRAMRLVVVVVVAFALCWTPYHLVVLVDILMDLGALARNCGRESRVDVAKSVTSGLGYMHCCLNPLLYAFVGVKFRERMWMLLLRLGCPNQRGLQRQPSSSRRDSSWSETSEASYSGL

B1: PF4 (platelet factor 4) (ligand, human, UniProt P02776 32-101, looked up)
chain: EAEEDGDLQCLCVKTTSQVRPRHITSLEVIKAGPHCPTAQLIATLKNGRKICLDLQAPLYKKIIKKLLES
B2: I309 (ligand, human, UniProt P22362 24-96, looked up)
chain: KSMQVPFSRCCFSFAEQEIPLRAILCYRNTSSICSNEGLIFKLKRGKEACALDTVGWVQRHRKMLRHCPSKRK
B3: NAP-2 (neutrophil-activating protein-2) (ligand, human, UniProt P02775 59-128, looked up)
chain: AELRCMCIKTTSGIHPKNIQSLEVIGKGTHCNQVEVIATLKDGRKICLDPDAPRIKKIVQKKLAGDESAD
B4: Mig (monokine induced by gamma interferon) (ligand, human, UniProt Q07325 23-125, looked up)
chain: TPVVRKGRCSCISTNQGTIHLQSLKDLKQFAPSPSCEKIEIIATLKNGVQTCLNPDSADVKELIKKWEKQVSQKKKQKNGKKHQKKKVLKVRKSQRSRQKKTT
notes: also called cold Mig

Columns and labels:
[1] = biological target: T1, human CXC Chemokine Receptor 3 (CXCR3); test: cell-based or functional assay
[2] = biological target: T1, human CXC Chemokine Receptor 3 (CXCR3); test: inhibition of 0.05 nM 125I-IP-10 binding to activated T cells (CD3 blasts)
[3] = biological target: T1, human CXC Chemokine Receptor 3 (CXCR3); test: inhibition of 125I-IP-10 binding to activated T cells
[4] = biological target: T1, human CXC Chemokine Receptor 3 (CXCR3); test: summing-up of the radioligand binding studies; Mig itself was tested only as cold competitor of 125I-IP-10

Row | Molecule | [Ca2+]i changes in IP-10/MigR transfectants (no response up to the concentration given) [1] [nM] | other results
1 | MCP-4 (from UniProt Q99616 24-98) (ligand) | > 100 | 
2 | eotaxin (from UniProt P51671 24-97) (ligand) | > 100 | 
3 | IL-8 (interleukin 8) (from UniProt P10145 28-99) (ligand) | > 100 | 
4 | MIP-1β (from UniProt P13236 24-92) (ligand) | > 100 | 
5 | GROα (from UniProt P09341 35-107) (ligand) | > 100 | 
6 | GCP-2 (granulocyte chemotactic protein-2) (from UniProt P80162 38-114) (ligand) | > 100 | 
7 | ENA78 (epithelial-derived neutrophil-activating peptide 78) (from UniProt P42830 37-114) (ligand) | > 100 | 
8 | lymphotactin (from UniProt P47992 22-114) (ligand) | > 100 | 
9 | MCP-2 (from UniProt P80075 24-99) (ligand) | > 100 | 
10 | murine anti-CXCR3 monoclonal antibody 1C6 |  | IC50, inhibition of IP-10 (12.5 nM) induced chemotaxis of activated T cells [1]: 0.8 µg/mL; IC50, inhibition of IP-10 mediated chemotaxis of activated T cells [1]: 0.856 µg/mL; Mig (2 nM) induced [Ca2+]i in activated T cells (no effect up to the concentration given) [1]: > 50 µg/mL; antibody concentration giving 100% inhibition of IP-10 induced chemotaxis of activated T cells [1]: 2 to 5 µg/mL; IC50 [2]: 0.16 µg/mL; antibody concentration giving complete inhibition of 125I-IP-10 binding [3]: 1 to 10 µg/mL
11 | RANTES (regulated on activation, normal T cell expressed and secreted) (from UniProt P13501 24-91) (ligand) | > 100 | 
12 | MCP-1 (monocyte chemotactic protein-1) (from UniProt P13500 24-99) (ligand) | > 100 | 
13 | MIP-1α (macrophage inflammatory protein-1α) (from UniProt P10147 24-92) (ligand) | > 100 | 
14 | MCP-3 (from UniProt P80098 24-99) (ligand) | > 100 | 
15 | B1 | > 100 | 
16 | B2 | > 100 | 
17 | B3 | > 100 | 
18 | B4 |  | Kd [4]: 0.15 to 0.6 nM
